One data set concerns colon crypt cells. Briefly: Colon crypt assay. It is filed as cell-based, mouse. Conditions: bFGF 60 ng/ml, EBP 500 ng/ml. The protocol: Colons from five (BDF) mice were removed and crypts isolated using a non enzymatic (EDTA) extraction method. Briefly, colons are washed and allowed to sit for 20 min. in a solution of PBS containing 0.04% sodium hypochlorite. Crypts are isolated by incubating the tissue for 1 hour at 37° C. in a solution of PBS containing 3 mM EDTA and 0.5 mM DTT. Crypts are then subjected to pancreatin digestion (0.2% in PBS) for 90 min. at 37° C. in order to obtain a single cell suspension. Cells are washed in PBS, counted and viability determined by trypan blue exclusion (85% in this experiment). Cells are then plated in a top layer of 0.37% Sigma low melt agar onto a bottom layer of 0.5% agar. The RPMI media used in the agar includes the presence of 1×ITS (insulin, transferrin, and selenium, Gibco). Incubations were done in the presence of 1% fetal calf serum (FCS) and the indicated growth factors at the following concentration: TGFα, 50 ng/ml; bFGF, 60 ng/ml; EBP, 500 ng/ml. Control incubations lacked growth factors and/or FCS. Each of the various culture conditions was performed in triplicate and scored every several days.

In data set [1] the test system is bone marrow suspensions from BDF mice. Briefly: Murine bone marrow colony formation (hematopoiesis). Format: cell-based, mouse. The protocol: Unfractionated bone marrow suspensions from BDF mice were plated into serum free culture medium (Iscove's modified Dulbecco's medium) in 0.3% agarose and incubated at 37° C., 5% CO2 for ten days at a cell concentration of 1×10^5 /ml in 96 well plates. Total volume per […] was 50 μl . EBP and other growth factors were added in the amounts indicated and colonies were scored at the tenth day of incubation.

Another data set deals with hepatocytes. Nature of the data set: 3H-thymidine incorporation in primary hepatocyte cultures. It is filed as cell-based. Conditions: EBP at 20 ng/ml, aFGF at 20 ng/ml, 24 to 48 hours, serum-free. The protocol: Hepatocytes were isolated by the in situ two step collagenase perfusion technique described by Seglen (Methods in Toxicol., Vol. 1A, 231-243 (1993). Briefly, the perfused livers were dispersed in ice cold Hank's buffer, filtered through a nylon mesh, and hepatocytes separated from nonparenchymal cells by repeated centrifugation at 50×g. The hepatocytes were determined to be greater than 85% viable by trypan blue exclusion. The hepatocytes were cultured on plates coated with rat tail collagen and plated in Williams E containing 5% FCS, 10^-7 M insulin, 10^-8 M dexamethason, glutamine, penicillin and streptomycin.
Cells were allowed to attach for 3-4 hours in serum containing media and then transferred to serum-free media. The appropriate concentrations of EBP or other growth factors were added and the cells were incubated for 24 to 48 hours in the presence of ^3 H-thymidine. After incubation, the extent of ^3 H-thymidine incorporation into cells was determined. The growth factors tested were keratinocyte growth factor (KGF) at 10 ng/ml, acidic FGF (aFGF) at 20 ng/ml, and EBP at 20 ng/ml. […] In this particular experiment, the serum free value was unusually high (about 3-fold).

The test system of data set [2] is immobilized soluble extracellular domain of eck. Nature of the data set: Stability of eck binding activity of formulated EBP (BIAcore). It is filed as physicochemical, human. The protocol:
FIG. 7. Binding of CHO-derived EBP in various detergent formulations to immobilized eck receptor as measured by BIAcore. Purified EBP was diluted to 100 μg/ml in PBS in the presence or absence of detergent and incubated for 2 hrs. at 3° C. Protein samples were diluted to the concentrations indicated in the figure and tested for eck receptor binding.
Measuring the ability of EBP to bind to the immobilized soluble extracellular domain of eck using BIAcore, it was determined that dilute solutions of purified EBP rapidly lost the ability to bind to the eck receptor unless formulated with a protective agent such as a detergent. Recombinant CHO EBP diluted into PBS to 100 μg/ml and incubated for 2 hours at […] lost approximately 50% of its eck binding activity. […] (see FIG. 7).

The subject of data set [3] is extracellular domain of the kit receptor. Nature of the data set: BIAcore binding to surfaces activated with kit receptor extracellular domain. The source says:
SDS-PAGE analysis of the fractions from this column confirmed that EBP was co-eluted with the receptor binding activity.

For another data set, the system named is EGF receptor. Briefly: EGF receptor phosphorylation in LIM 2405 cells treated with EBP. It is filed as cell-based, human.

B1: EBP: eck receptor binding protein, polypeptide ligand of the eck receptor (B61 gene product, SEQ. ID. NO. 1); source form not specified at place (protein)
chain: MEFLWAPLLGLCCSLAAADRHTVFWNSSNPKFRNEDYTIHVQLNDYVDIICPHYEDHSVADAAMEQYILYLVEHEEYQLCQPQSKDQVRWQCNRPSAKHGPEKLSEKFQRFTPFTLGKEFKEGHSYYYISKPIHQHEDRCLRLKVTVSGKITHSPQAHVNPQEKRLAADDPEVRVLHSIGHSAAPRLFPLAWTVLLLPLLLLQTP
In the case of B1, the “colon crypt cell clusters, overall observation” value in the data set with colon crypt cells is listed as “occasional large clusters”. The “stimulation of CFU-M or BFU-E/CFU-E” value in data set [1] (EBP alone) is listed as “no stimulation”. Besides, in data set [1] (EBP at 1 μg/ml with murine IL-3, colonies scored day 10), the “potentiation of murine IL-3 dependent CFU-C formation compared to IL-3 alone” value is “about 2 fold”. For the same molecule, in the data set with hepatocytes, the “amount of 3H-thymidine incorporation stimulated” value is recorded as “about the same as that induced by aFGF”. Moreover, in data set [2] (1 mM CHAPS, 0.1% NP-40, 0.1% tween 20, 0.1% triton-X 100, or 0.1% tween 80), the “loss of eck binding activity when formulated in detergent” value is “loss of activity can be avoided”. The “stability of eck binding activity” value in data set [2] (2-5 mg/ml in detergent solutions, 3° C.) is reported as “stable for at least one week”; in data set [2] (10-500 μg/ml, stored at -20° C. or multiple freeze thaw cycles), “will lose activity”. The “loss of eck binding activity when incubated with protein carriers” value in data set [2] (diluted EBP with carriers such as fetal calf serum) is “can also be avoided”. The “binding to BIAcore surfaces activated with the extracellular domain of the kit receptor” value in data set [3] is recorded as “did not bind”. The “phosphorylation of the EGF receptor” value in the data set on EGF receptor is reported as “does not result in spurious phosphorylation”.

(Values after patent publication US5716934A, “Eck receptor ligands” (Amgen Inc., priority 1995, dated 1998).)
